Test results from article PMC12400406 (Organic Letters, 2025).

What was measured:
CmnA-A2-CmnN = target: T1, CmnA-A2-CmnN (Saccharothrix mutabilis, UniProt A6YEH2); assay: enzyme activity assay (amino acid activation); type: biochemical
T1 construct: second adenylation domain of CmnA, with MbtH-like protein CmnN, recombinant; with MbtH-like protein CmnN
T1 sequence (A6YEH2 1420-1895 limits assumed): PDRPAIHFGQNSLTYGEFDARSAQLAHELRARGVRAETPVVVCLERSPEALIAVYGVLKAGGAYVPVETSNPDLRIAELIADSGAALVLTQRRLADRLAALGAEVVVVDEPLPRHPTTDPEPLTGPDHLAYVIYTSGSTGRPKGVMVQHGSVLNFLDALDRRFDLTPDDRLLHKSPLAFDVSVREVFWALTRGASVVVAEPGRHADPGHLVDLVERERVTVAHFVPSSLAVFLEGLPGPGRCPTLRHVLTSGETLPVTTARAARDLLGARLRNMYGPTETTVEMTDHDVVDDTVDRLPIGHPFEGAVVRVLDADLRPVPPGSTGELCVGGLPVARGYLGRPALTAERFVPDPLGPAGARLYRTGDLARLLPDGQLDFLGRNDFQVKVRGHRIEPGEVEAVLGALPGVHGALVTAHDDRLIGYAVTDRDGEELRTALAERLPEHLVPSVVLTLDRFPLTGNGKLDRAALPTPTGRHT
T1 sequence (A6YEI5 1-62 partner): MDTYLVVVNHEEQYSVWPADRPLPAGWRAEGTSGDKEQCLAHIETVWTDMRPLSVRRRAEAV

CmnA-A1–CmnN = target: T2, CmnA-A1–CmnN (Saccharothrix mutabilis, UniProt A6YEH2); assay: in vitro loading onto CmnI-T, intact protein Q-TOF MS; adenylation activity assay; type: biochemical; details: ATP, Mg2+; holo-CmnI-T as acceptor
T2 construct: first adenylation domain (module 1) of CmnA, co-expressed with MbtH-like protein CmnN in E. coli; with MbtH-like protein CmnN
T2 sequence (A6YEH2 450-890 limits assumed): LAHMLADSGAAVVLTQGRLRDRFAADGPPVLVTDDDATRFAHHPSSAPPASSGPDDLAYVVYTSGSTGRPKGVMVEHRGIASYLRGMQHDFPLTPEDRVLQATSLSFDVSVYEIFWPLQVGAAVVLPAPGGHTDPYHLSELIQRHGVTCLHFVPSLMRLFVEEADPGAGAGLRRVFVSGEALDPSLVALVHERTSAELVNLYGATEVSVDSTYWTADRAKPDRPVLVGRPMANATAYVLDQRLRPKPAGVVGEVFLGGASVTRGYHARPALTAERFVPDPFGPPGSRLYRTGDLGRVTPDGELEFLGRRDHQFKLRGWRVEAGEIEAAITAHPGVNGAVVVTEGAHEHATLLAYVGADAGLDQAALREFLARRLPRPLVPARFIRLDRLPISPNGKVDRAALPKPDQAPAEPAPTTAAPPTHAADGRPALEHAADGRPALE
T2 sequence (A6YEI5 1-62 partner): T1 sequence (A6YEI5 1-62 partner)

CmnA-A2-CmnN complex = CmnA-A2-CmnN complex (Saccharothrix mutabilis subsp. capreolus, UniProt A6YEI5 1-62, The printed limits Leu1832-Gly1896 give only 65 residues, which does not fit the stated 55.5 kDa. They are read as a digit transposition of Leu1382-Gly1896 (515 residues). An added initiator Met is le); assay: BLI; biolayer interferometry; which partner was immobilised and the conditions are in the Supporting Information (not shown); details: both partners purified
CmnA-A1–CmnN complex = CmnA-A1–CmnN complex (Saccharothrix mutabilis subsp. capreolus, UniProt A6YEI5 1-62, An added initiator Met precedes His364 and is left out. The His-tag on CmnN is thrombin-cleaved. A6YEI5 is taken as CmnN because it is MbtH-like.); assay: as above; details: both partners purified

## C[C@H](N)C(=O)O [L-Ala]
CmnA-A2-CmnN
  enzyme activity assay (amino acid activation): CmnA-A2 is capable of activating both L-Ser and L-Ala

## NC[C@H](N)C(=O)O [L-Dap]
CmnA-A1–CmnN
  in vitro loading onto CmnI-T, intact protein Q-TOF MS; adenylation activity assa: CmnA-A1 specifically recognizes and activates the nonproteinogenic amino acid L-Dap

## N[C@@H](CO)C(=O)O [L-Ser]
CmnA-A2-CmnN
  enzyme activity assay (amino acid activation): CmnA-A2 is capable of activating both L-Ser and L-Ala

B1: CmnI (enzyme, Saccharothrix mutabilis subsp. capreolus, UniProt A6YEI0 1-548, looked up)
chain: MTTETPATTGAPATTGAPAPPGRAEIVAAVLPVFAEVLDAPDLTPDSDFFVHGGNSLLAIRVAGRVGRRLGRQVPPAGVLKHPTPDLLAAHLEEEFRGGGAPPIPAPRAGAEADRRPSTAQERVWLLHQLDPDRLDHLVTVALDVAGTVDPAAFTAAWTAVVRRHEALRSRFVKADDDRVAVVVDAEAAPEISVLDLARFPAPVRDRLAEERVRLLRTTPIRLDTGPLARFALLRLADRRYRIELAVHHIVCDGWSLDTLLADFLDAYGRALAGRSPALPPPAVGFADYVAWERDVESSRWPDMAVRLARRFADRPADLPLPVDPVDVPAHEDGDDVTVHAPPGLAAAVERARTSFGHTALTFHLTALGVLLARITGVDDLVVAVPVAGRAQTEHEDLVGLFVNTALARVRLGGTSDVRVLLERNRDEVDELVDCQTFPFDRLVDLLGARRAGTRVPLARVSLAVQNFDDPGTPAPELGFTWQFRDPPERQSKFDLAFTVSDTDGLRLTVTYRPSLFRRATVAAWAGQYLVALEHVVRGVADPEGSAR
notes: CmnI, A domain-less NRPS module 3 (T-C didomain) of capreomycin biosynthesis, Saccharothrix mutabilis subsp. capreolus; calculated molecular weight of the apo-form construct 61 484.72 Da; also called A domain-less NRPS module CmnI; source: purified
CmnA-A2-CmnN complex
  Kd: 4.93 µM
  koff: 0.000728 s⁻¹
  kon: 148 M⁻¹ s⁻¹
CmnA-A1–CmnN complex
  Kd: 1.85 µM
  koff: 0.000477 s⁻¹
  kon: 258 M⁻¹ s⁻¹
